# “And” between values parts separate entries of the source, which are not always exact repeats. Equal entries are not always repeated.
# Legend:
# kidney = assay: Renal dose-effect relation (logistic regression, LD50); type: in vivo, mice; details: death before 90 days
# Procedure: (§1) Dosimetry was performed according to the MIRD schema by using the spherical nodes S-factors from the Olinda/EXM software. S-factors were interpolated from the actual weight of the organs and tissue. All organs and tissue were assumed to be spherical with a density of […]. Mean radiation absorbed doses were obtained as a function-injected mass of peptide, assuming a homogeneous distribution in the tumor and organs. […] Owing to the short path length of α-particles, only the self-dose within each organ was included. The threshold for lethality was determined with renal absorbed dose and injected activity as indicators. Logistic regression analysis was used to determine the LD50 for presumed renal toxicity-related death.
# Data analyses, graphs, and calculations were performed in Prism-5. Mann-Whitney t test was used to calculate the significance. The results of statistical tests were considered significant when P was <0.05. Biodistribution data were expressed as mean ± standard deviation (SD) and tumor volume data as mean ± standard error (SEM). Binary logistic analysis (forced entry method) was performed with SPSS software (IBM SPSS statistics, version 20).
# [1] = system: tumor and normal organs of mice; assay: Radiation dosimetry (MIRD schema, Olinda/EXM spherical S-factors); type: in vivo; details: for mean radiation absorbed tumor dose: predicted from ^111In-DOTATATE tumor uptake, AR42J tumor-bearing mice; for mean radiation absorbed dose for femur: high-dose cohort
# Procedure: Saturation of receptor-specific tumor uptake was investigated by determining the kinetics of the tumor uptake with increasing injected mass of peptide. The time-activity curves for the tumor and normal organs were fitted by single-exponential functions using Prism-5 (GraphPad). Goodness of fit was analyzed with the Pearson correlation coefficient R ^2 > 0.8. Both F test and the Aikake information criterion were used to decide on the complexity of the curves.
# as §1
# in vivo = assay: in vivo; parameters: species or system mice; details: male, athymic nu/nu, mouse, iv, 0.3 nmol, total radioactivity
# Procedure: Mice were euthanized at 10 and 60 min p.i. […] Blood, organs, and femur-containing femur marrow were collected and counted as described previously. The uptake was expressed as percentage of injected activity per gram of tissue (%IA/g).
# AR42J tumor = details: low-dose (16.8 ± 1.3 MBq) and high-dose (33.1 ± 3.7 MBq); AR42J tumor-bearing mice
# Procedure: Athymic male nu/nu mice (Tachonic), 6–8 weeks old, were used in all studies. Tumor models were established by inoculating 5 × 10^6 rat pancreatic tumor AR42J cells (American Type Culture Collection) with high SSTR2 expression into the right hind flank of the animals. After 3 weeks, the tumor size reached approximately 200 mm^3. All animal experiments were carried out following Institutional Animal Care and Use Committee-approved protocol.
# Toxicity and therapeutic efficacy were investigated in 18 animals (n = 6/cohort): control, low-dose (cumulative 16.8 ± 1.3 MBq), and high-dose (cumulative 33.1 ± 3.7 MBq) cohorts. Treatment started 23 days after xenograft inoculation. Control mice received in total 4 × 0.3 nmol DOTATATE on two consecutive days. Two injections of 0.3 nmol DOTATATE per day were given, with a time interval of at least 6 h. […] The high-dose cohort received four doses on two consecutive days, twice a day with a time interval of at least 6 h. […] Animals were monitored for 30 days starting on the day of treatment. Tumors were measured by caliper, and animals were weighed at least twice weekly. The endpoints chosen were weight loss >15% and tumor volume >2000 mm^3. […]
# [2] = with L-lysine (35 mg), tumor-bearing mice, calculated
# [3] = without L-lysine, tumor-bearing mice, calculated
smiles,measurement,setting,value
"C[C@@H](O)[C@H](NC(=O)[C@@H]1CSSC[C@H](NC(=O)[C@@H](Cc2ccccc2)NC(=O)CN2CCN(CC(=O)O)CCN(CC(=O)O)CCN(CC(=O)O)CC2)C(=O)N[C@@H](Cc2ccc(O)cc2)C(=O)N[C@H](Cc2c[nH]c3ccccc23)C(=O)N[C@@H](CCCCN)C(=O)N[C@@H]([C@@H](C)O)C(=O)N1)C(=O)O [^213Bi-DOTATATE, metal not drawn]",threshold LD5 kidney dose,kidney,11 ± 4 Gy
same,LD50 mean renal radiation absorbed dose,kidney; mice with and without L-lysine,20 Gy and 20 ± 8 Gy
same,mean radiation absorbed tumor dose,[1]; 0.1 nmol peptide,approximately 0.5 Gy/MBq
same,mean radiation absorbed tumor dose,[1]; 0.3 nmol peptide,approximately 0.5 Gy/MBq
same,mean radiation absorbed dose for femur,[1]; with pre-treatment of L-lysine,1.3 Gy
same,mean radiation absorbed dose for femur,[1]; without L-lysine,1.0 Gy
same,mean renal absorbed dose,"[1]; high-dose(+) cohort, 28.3 ± 0.8 MBq",16 Gy
same,time-integrated activity coefficient in the kidney,[1]; mice pre-treated with L-lysine,6.0 ± 2.4 min/g
same,time-integrated activity coefficient in the kidney,[1]; mice without pre-treatment of L-lysine,12.0 ± 3.7 min/g
same,renal absorbed dose,"[1]; nontumor-bearing animals, with L-lysine",0.50 Gy/MBq
same,renal absorbed dose,"[1]; nontumor-bearing animals, without L-lysine",1.0 Gy/MBq
same,renal absorbed dose,"[1]; tumor-bearing animals, with L-lysine",0.56 Gy/MBq
same,renal absorbed dose,"[1]; tumor-bearing animals, without L-lysine",1.1 Gy/MBq
same,"Radiation absorbed dose per administered activity, Adrenals, Total α",[1]; [2],5.60E-02 Gy/MBq
same,"Radiation absorbed dose per administered activity, Adrenals, Total β",[1]; [2],2.00E-03 Gy/MBq
same,"Radiation absorbed dose per administered activity, Adrenals, ^209Pb β",[1]; [2],1.30E-04 Gy/MBq
same,"Radiation absorbed dose per administered activity, Adrenals, ^209Tl β + γ",[1]; [2],4.00E-05 Gy/MBq
same,"Radiation absorbed dose per administered activity, Adrenals, ^213Bi α",[1]; [2],8.00E-04 Gy/MBq
same,"Radiation absorbed dose per administered activity, Adrenals, ^213Bi β",[1]; [2],1.80E-03 Gy/MBq
same,"Radiation absorbed dose per administered activity, Adrenals, ^213Po α",[1]; [2],5.49E-02 Gy/MBq
same,"Radiation absorbed dose per administered activity, Blood, Total α",[1]; [2],1.09E-01 Gy/MBq
same,"Radiation absorbed dose per administered activity, Blood, Total β",[1]; [2],6.00E-03 Gy/MBq
same,"Radiation absorbed dose per administered activity, Blood, ^209Pb β",[1]; [2],2.00E-04 Gy/MBq
same,"Radiation absorbed dose per administered activity, Blood, ^209Tl β + γ",[1]; [2],1.40E-04 Gy/MBq
same,"Radiation absorbed dose per administered activity, Blood, ^213Bi α",[1]; [2],1.60E-03 Gy/MBq
same,"Radiation absorbed dose per administered activity, Blood, ^213Bi β",[1]; [2],5.20E-03 Gy/MBq
same,"Radiation absorbed dose per administered activity, Femur, Total α",[1]; [2],4.20E-02 Gy/MBq
same,"Radiation absorbed dose per administered activity, Femur, Total β",[1]; [2],2.00E-03 Gy/MBq
same,"Radiation absorbed dose per administered activity, Femur, ^209Pb β",[1]; [2],1.00E-04 Gy/MBq
same,"Radiation absorbed dose per administered activity, Femur, ^209Tl β + γ",[1]; [2],4.00E-05 Gy/MBq
same,"Radiation absorbed dose per administered activity, Femur, ^213Bi α",[1]; [2],6.00E-04 Gy/MBq
same,"Radiation absorbed dose per administered activity, Femur, ^213Bi β",[1]; [2],1.60E-03 Gy/MBq
same,"Radiation absorbed dose per administered activity, Femur, ^213Po α",[1]; [2],4.13E-02 Gy/MBq
same,"Radiation absorbed dose per administered activity, Kidney, Total α",[1]; [2],5.33E-01 Gy/MBq
same,"Radiation absorbed dose per administered activity, Kidney, Total β",[1]; [2],2.60E-02 Gy/MBq
same,"Radiation absorbed dose per administered activity, Kidney, ^209Pb β",[1]; [2],1.40E-03 Gy/MBq
same,"Radiation absorbed dose per administered activity, Kidney, ^209Tl β + γ",[1]; [2],6.30E-04 Gy/MBq
same,"Radiation absorbed dose per administered activity, Kidney, ^213Bi α",[1]; [2],8.00E-03 Gy/MBq
same,"Radiation absorbed dose per administered activity, Kidney, ^213Bi β",[1]; [2],2.37E-02 Gy/MBq
same,"Radiation absorbed dose per administered activity, Kidney, ^213Po α",[1]; [2],5.25E-01 Gy/MBq
same,"Radiation absorbed dose per administered activity, Pancreas, Total α",[1]; [2],1.36E-01 Gy/MBq
same,"Radiation absorbed dose per administered activity, Pancreas, Total β",[1]; [2],5.00E-03 Gy/MBq
same,"Radiation absorbed dose per administered activity, Pancreas, ^209Pb β",[1]; [2],8.90E-04 Gy/MBq
same,"Radiation absorbed dose per administered activity, Pancreas, ^209Tl β + γ",[1]; [2],1.00E-04 Gy/MBq
same,"Radiation absorbed dose per administered activity, Pancreas, ^213Bi α",[1]; [2],2.00E-03 Gy/MBq
same,"Radiation absorbed dose per administered activity, Pancreas, ^213Bi β",[1]; [2],4.50E-03 Gy/MBq
same,"Radiation absorbed dose per administered activity, Pancreas, ^213Po α",[1]; [2],1.34E-01 Gy/MBq
same,"Radiation absorbed dose per administered activity, Stomach, Total α",[1]; [2],6.10E-02 Gy/MBq
same,"Radiation absorbed dose per administered activity, Stomach, Total β",[1]; [2],3.00E-03 Gy/MBq
same,"Radiation absorbed dose per administered activity, Stomach, ^209Pb β",[1]; [2],2.20E-04 Gy/MBq
same,"Radiation absorbed dose per administered activity, Stomach, ^209Tl β + γ",[1]; [2],7.00E-05 Gy/MBq
same,"Radiation absorbed dose per administered activity, Stomach, ^213Bi α",[1]; [2],9.00E-04 Gy/MBq
same,"Radiation absorbed dose per administered activity, Stomach, ^213Bi β",[1]; [2],2.60E-03 Gy/MBq
same,"Radiation absorbed dose per administered activity, Stomach, ^213Po α",[1]; [2],6.00E-02 Gy/MBq
same,"Radiation absorbed dose per administered activity, Tumor, Total α",[1]; [2],6.14E-01 Gy/MBq
same,"Radiation absorbed dose per administered activity, Tumor, Total β",[1]; [2],4.40E-02 Gy/MBq
same,"Radiation absorbed dose per administered activity, Tumor, ^209Pb β",[1]; [2],1.41E-02 Gy/MBq
same,"Radiation absorbed dose per administered activity, Tumor, ^209Tl β + γ",[1]; [2],8.60E-04 Gy/MBq
same,"Radiation absorbed dose per administered activity, Tumor, ^213Bi α",[1]; [2],9.20E-03 Gy/MBq
same,"Radiation absorbed dose per administered activity, Tumor, ^213Bi β",[1]; [2],2.87E-02 Gy/MBq
same,"Radiation absorbed dose per administered activity, Tumor, ^213Po α",[1]; [2],6.05E-01 Gy/MBq
same,"Radiation absorbed dose per administered activity, Adrenals, Total α",[1]; [3],3.60E-02 Gy/MBq
same,"Radiation absorbed dose per administered activity, Adrenals, Total β",[1]; [3],2.00E-03 Gy/MBq
same,"Radiation absorbed dose per administered activity, Adrenals, ^209Pb β",[1]; [3],2.00E-04 Gy/MBq
same,"Radiation absorbed dose per administered activity, Adrenals, ^209Tl β + γ",[1]; [3],2.00E-05 Gy/MBq
same,"Radiation absorbed dose per administered activity, Adrenals, ^213Bi α",[1]; [3],5.00E-04 Gy/MBq
same,"Radiation absorbed dose per administered activity, Adrenals, ^213Bi β",[1]; [3],1.50E-03 Gy/MBq
same,"Radiation absorbed dose per administered activity, Adrenals, ^213Po α",[1]; [3],3.56E-02 Gy/MBq
same,"Radiation absorbed dose per administered activity, Blood, Total α",[1]; [3],9.00E-02 Gy/MBq
same,"Radiation absorbed dose per administered activity, Blood, Total β",[1]; [3],5.00E-03 Gy/MBq
same,"Radiation absorbed dose per administered activity, Blood, ^209Pb β",[1]; [3],1.60E-04 Gy/MBq
same,"Radiation absorbed dose per administered activity, Blood, ^209Tl β + γ",[1]; [3],1.20E-04 Gy/MBq
same,"Radiation absorbed dose per administered activity, Blood, ^213Bi α",[1]; [3],1.30E-03 Gy/MBq
same,"Radiation absorbed dose per administered activity, Blood, ^213Bi β",[1]; [3],4.30E-03 Gy/MBq
same,"Radiation absorbed dose per administered activity, Blood, ^213Po α",[1]; [3],8.80E-02 Gy/MBq
same,"Radiation absorbed dose per administered activity, Femur, Total α",[1]; [3],3.20E-02 Gy/MBq
same,"Radiation absorbed dose per administered activity, Femur, Total β",[1]; [3],1.00E-03 Gy/MBq
same,"Radiation absorbed dose per administered activity, Femur, ^209Pb β",[1]; [3],1.00E-04 Gy/MBq
same,"Radiation absorbed dose per administered activity, Femur, ^209Tl β + γ",[1]; [3],3.00E-05 Gy/MBq
same,"Radiation absorbed dose per administered activity, Femur, ^213Bi α",[1]; [3],5.00E-04 Gy/MBq
same,"Radiation absorbed dose per administered activity, Femur, ^213Bi β",[1]; [3],1.30E-03 Gy/MBq
same,"Radiation absorbed dose per administered activity, Femur, ^213Po α",[1]; [3],3.16E-02 Gy/MBq
same,"Radiation absorbed dose per administered activity, Kidney, Total α",[1]; [3],1.07E+00 Gy/MBq
same,"Radiation absorbed dose per administered activity, Kidney, Total β",[1]; [3],5.50E-02 Gy/MBq
same,"Radiation absorbed dose per administered activity, Kidney, ^209Pb β",[1]; [3],6.20E-03 Gy/MBq
same,"Radiation absorbed dose per administered activity, Kidney, ^209Tl β + γ",[1]; [3],1.30E-03 Gy/MBq
same,"Radiation absorbed dose per administered activity, Kidney, ^213Bi α",[1]; [3],1.61E-02 Gy/MBq
same,"Radiation absorbed dose per administered activity, Kidney, ^213Bi β",[1]; [3],4.71E-02 Gy/MBq
same,"Radiation absorbed dose per administered activity, Pancreas, Total α",[1]; [3],1.34E-01 Gy/MBq
same,"Radiation absorbed dose per administered activity, Pancreas, Total β",[1]; [3],5.00E-03 Gy/MBq
same,"Radiation absorbed dose per administered activity, Pancreas, ^209Pb β",[1]; [3],7.00E-04 Gy/MBq
same,"Radiation absorbed dose per administered activity, Pancreas, ^209Tl β + γ",[1]; [3],1.00E-04 Gy/MBq
same,"Radiation absorbed dose per administered activity, Pancreas, ^213Bi α",[1]; [3],2.00E-03 Gy/MBq
same,"Radiation absorbed dose per administered activity, Pancreas, ^213Bi β",[1]; [3],4.50E-03 Gy/MBq
same,"Radiation absorbed dose per administered activity, Pancreas, ^213Po α",[1]; [3],1.32E-01 Gy/MBq
same,"Radiation absorbed dose per administered activity, Stomach, Total α",[1]; [3],9.00E-02 Gy/MBq
same,"Radiation absorbed dose per administered activity, Stomach, Total β",[1]; [3],5.00E-03 Gy/MBq
same,"Radiation absorbed dose per administered activity, Stomach, ^209Pb β",[1]; [3],5.90E-04 Gy/MBq
same,"Radiation absorbed dose per administered activity, Stomach, ^209Tl β + γ",[1]; [3],1.10E-04 Gy/MBq
same,"Radiation absorbed dose per administered activity, Stomach, ^213Bi α",[1]; [3],1.30E-03 Gy/MBq
same,"Radiation absorbed dose per administered activity, Stomach, ^213Bi β",[1]; [3],3.90E-03 Gy/MBq
same,"Radiation absorbed dose per administered activity, Stomach, ^213Po α",[1]; [3],8.84E-02 Gy/MBq
same,"Radiation absorbed dose per administered activity, Tumor, Total α",[1]; [3],6.61E-01 Gy/MBq
same,"Radiation absorbed dose per administered activity, Tumor, Total β",[1]; [3],4.80E-02 Gy/MBq
same,"Radiation absorbed dose per administered activity, Tumor, ^209Pb β",[1]; [3],1.58E-02 Gy/MBq
same,"Radiation absorbed dose per administered activity, Tumor, ^209Tl β + γ",[1]; [3],9.60E-04 Gy/MBq
same,"Radiation absorbed dose per administered activity, Tumor, ^213Bi α",[1]; [3],9.90E-03 Gy/MBq
same,"Radiation absorbed dose per administered activity, Tumor, ^213Bi β",[1]; [3],3.14E-02 Gy/MBq
same,"Radiation absorbed dose per administered activity, Tumor, ^213Po α",[1]; [3],6.51E-01 Gy/MBq
same,tissue uptake at 10 min,in vivo; renal uptake,30.8 ± 5.8 %ID/g
same,tissue uptake at 1 h,in vivo; renal uptake,18.4 ± 1.8 %ID/g
same,tissue uptake at 1 h,in vivo; stomach uptake,1.6 ± 0.5 %ID/g
same,tumor volume,AR42J tumor,significantly decreased
